# Measurements: PMC4914113, “Another look at the mechanism involving trimeric dUTPases in Staphylococcus aureus pathogenicity island induction involves novel players in the party” (Nucleic Acids Research, 2016)
# Tests used:
# [1] = target: Dut80α D81A D110C S168C (Staphylococcus aureus phage 80α); assay: BLI; as a1 but non-reducing buffer (400 mM NaCl, 75 mM HEPES pH 7.5, 5 mM MgCl2) with 0.5 mM dUPNPP; 1:1 model
# [2] = target: Dutϕ11^ΔVI, Dutϕ11 lacking motif VI (Staphylococcus aureus phage ϕ11); assay: BLI; BLItz; His-tagged Dut immobilised at 1 μM on Ni-NTA biosensors, Stl in solution (at least five dilutions, 4 to 0.062 μM); buffer STL (400 mM NaCl, 75 mM HEPES pH 7.5, 5 mM MgCl2, 2 mM DTT); no nucleotide; 1:1 model
# [3] = target: Dut80α^D81A (Staphylococcus aureus phage 80α); assay: as above
# [4] = target: Dutϕ11^ΔVI-IV-80α (Staphylococcus aureus phage ϕ11); assay: as above
# [5] = target: Dut80α^Y84I (Staphylococcus aureus phage 80α); assay: as above
# [6] = target: Dut80α^G164S (Staphylococcus aureus phage 80α); assay: BLI; as a1, buffer STL supplemented with 0.5 mM dUPNPP (baselines and dissociation without nucleotide); 1:1 model
# [7] = target: Dut80α D81A D110C S168C (Staphylococcus aureus phage 80α); assay: as above
# [8] = target: Dutϕ11^ΔVI, Dutϕ11 lacking motif VI (Staphylococcus aureus phage ϕ11); assay: as above
# [9] = target: Dut80α^D81A (Staphylococcus aureus phage 80α); assay: as above
# [10] = target: Dut80α^ΔVI, Dut80α lacking motif VI (Staphylococcus aureus phage 80α); assay: as above
# [11] = target: Dut80α^ΔV, Dut80α motif V deletion mutant (Staphylococcus aureus phage 80α); assay: as above
# [12] = target: Dut80α^Y84I (Staphylococcus aureus phage 80α); assay: as above
# [13] = target: Dutϕ11^(ΔVI F164A) (Staphylococcus aureus phage ϕ11); assay: as above
# [14] = target: Dutϕ11^ΔV-ΔVI (Staphylococcus aureus phage ϕ11); assay: as above
# [15] = target: Dutϕ11^ΔV, Dutϕ11 motif V deletion mutant (Staphylococcus aureus phage ϕ11); assay: as above
# [16] = target: Dut80α^F165A (Staphylococcus aureus phage 80α); assay: as above
# [17] = target: Dutϕ11^WT, wild-type dUTPase of phage ϕ11 (Staphylococcus aureus phage ϕ11); assay: as above
# [18] = target: Dut80α^WT, wild-type dUTPase of phage 80α (Staphylococcus aureus phage 80α); assay: as above
# [19] = target: Dut80α^ΔV, Dut80α motif V deletion mutant (Staphylococcus aureus phage 80α); assay: BLI; as a1, buffer STL supplemented with 5 mM dUMP (baselines and dissociation without nucleotide); 1:1 model
# [20] = target: Dutϕ11^WT, wild-type dUTPase of phage ϕ11 (Staphylococcus aureus phage ϕ11); assay: as above
# [21] = target: Dut80α^WT, wild-type dUTPase of phage 80α (Staphylococcus aureus phage 80α); assay: as above
substance,measurement,setting,value
Stl repressor from SaPIbov1 (natural protein),Kd,[1],19.3 nM
same,koff,[1],0.0011 s⁻¹
same,kon,[1],57000 M⁻¹ s⁻¹
same,Kd,[2],11.4 nM
same,koff,[2],0.00024 s⁻¹
same,kon,[2],21000 M⁻¹ s⁻¹
same,Kd,[3],161 nM
same,koff,[3],0.0042 s⁻¹
same,kon,[3],26000 M⁻¹ s⁻¹
same,Kd,[4],> 1000 nM
same,Kd,[5],> 1000 nM
same,Kd,[6],> 1000 nM
same,Kd,[7],192 nM
same,koff,[7],0.005 s⁻¹
same,kon,[7],26000 M⁻¹ s⁻¹
same,Kd,[8],12.7 nM
same,koff,[8],0.00014 s⁻¹
same,kon,[8],11000 M⁻¹ s⁻¹
same,Kd,[9],> 1000 nM
same,Kd,[10],> 1000 nM
same,Kd,[11],525 nM
same,koff,[11],0.0042 s⁻¹
same,kon,[11],8000 M⁻¹ s⁻¹
same,Kd,[12],> 1000 nM
same,Kd,[13],378 nM
same,koff,[13],0.0031 s⁻¹
same,kon,[13],8200 M⁻¹ s⁻¹
same,Kd,[14],200 nM
same,koff,[14],0.0019 s⁻¹
same,kon,[14],9500 M⁻¹ s⁻¹
same,Kd,[15],3.84 nM
same,koff,[15],5e-05 s⁻¹
same,kon,[15],13000 M⁻¹ s⁻¹
same,Kd,[16],> 1000 nM
same,Kd,[17],300 nM
same,koff,[17],0.0006 s⁻¹
same,kon,[17],2000 M⁻¹ s⁻¹
same,Kd,[18],466 nM
same,koff,[18],0.0014 s⁻¹
same,kon,[18],3000 M⁻¹ s⁻¹
same,Kd,[19],602 nM
same,koff,[19],0.005 s⁻¹
same,kon,[19],8300 M⁻¹ s⁻¹
same,Kd,[20],1.93 nM
same,koff,[20],5.8e-05 s⁻¹
same,kon,[20],30000 M⁻¹ s⁻¹
same,Kd,[21],23.5 nM
same,koff,[21],0.0008 s⁻¹
same,kon,[21],34000 M⁻¹ s⁻¹
